Here are results for one molecule from paper PMC12199698, “Reliable prediction of protein–protein binding affinity changes upon mutations with Pythia-PPI” (National Science Review, 2025).

The experiment deals with T1, SARS-CoV-2 prototype receptor binding domain (SARS-CoV-2 prototype, GISAID …, UniProt P0DTC2).
T1 construct: also called SARS-CoV-2 PT RBD; RBD
The experiment is described as follows: SPR; BIAcore 8K; antibody captured on a Protein A chip ([…]; running buffer PBST (PBS + 0.05% ([…]) Tween 20); […]; 1:1 (Langmuir) binding model; […]. The conditions noted are these: both partners purified. (In general: Surface plasmon resonance follows binding to a sensor surface in real time, without labels.)

B1: CB6 antibody (wild type) (antibody, V domains shown)
VH: EVQLVESGGGLVQPGGSLRLSCAASGFTVSSNYMSWVRQAPGKGLEWVSVIYSGGSTFYADSVKGRFTISRDNSMNTLFLQMNSLRAEDTAVYYCARVLPMYGDYLDYWGQGTLVTVSS
VL: not shown
notes: heavy chain variable region of CB6; constant region of human IgG1; light chain variable part of CB6; Ig kappa chain (constant part) to which the light chain was fused; IgG1, kappa; also called WT
On to B1, for which the Kd (commonly the free concentration of one partner at which half of the binding sites on the other are occupied at equilibrium, for simple one-to-one binding) worked out at 14.6 nM.
